Source: WO2001077362A1

Target: purified soluble human HM1.24 antigen (HA-tagged, from soluble human HM1.24 antigen-expressing CHO cells) (human)
Test: sandwich ELISA with purified antigen at 5000-fold dilution (about 76.4 ng/mL) captured by anti-HA antibody; lowest measurable antibody concentration

measurement limit: 500 pg/mL
Substance: reshaped human anti-HM1.24 antibody (humanized anti-HM1.24 antibody), light chain version a and heavy chain version s
